Starred links: 1 amine or outer side, 2 acyl side, 3 side chain; linkers in the order of their positions; H or OH if unused. Positions of bridges follow the written chain, without caps; N, C: chain ends. Non-standard residues stand in square brackets, D forms with d. Groups on a side chain read outwards from the residue. Primed or numbered codes have the meaning given here. No end group written: not given here. *: point of attachment. dpeg″ = —[CO(CH2)O(CH2)2O(CH2)NH]— spacer unit, O=C(COCCOCN[*:1])[*:2]; C20 diacid = O=C(O)CCCCCCCCCCCCCCCCCCC(=O)*; C18 diacid = O=C(O)CCCCCCCCCCCCCCCCC(=O)*; γGlu = O=C(O)[C@H](CCC(=O)[*:2])N[*:1]; Stearoyl = CCCCCCCCCCCCCCCCCC(=O)*; Palmitoyl = CCCCCCCCCCCCCCCC(=O)*
T1: human amylin 3 receptor (human, UniProt P30988 25-474; O60896 24-148)
T1 sequence (looked up) 1: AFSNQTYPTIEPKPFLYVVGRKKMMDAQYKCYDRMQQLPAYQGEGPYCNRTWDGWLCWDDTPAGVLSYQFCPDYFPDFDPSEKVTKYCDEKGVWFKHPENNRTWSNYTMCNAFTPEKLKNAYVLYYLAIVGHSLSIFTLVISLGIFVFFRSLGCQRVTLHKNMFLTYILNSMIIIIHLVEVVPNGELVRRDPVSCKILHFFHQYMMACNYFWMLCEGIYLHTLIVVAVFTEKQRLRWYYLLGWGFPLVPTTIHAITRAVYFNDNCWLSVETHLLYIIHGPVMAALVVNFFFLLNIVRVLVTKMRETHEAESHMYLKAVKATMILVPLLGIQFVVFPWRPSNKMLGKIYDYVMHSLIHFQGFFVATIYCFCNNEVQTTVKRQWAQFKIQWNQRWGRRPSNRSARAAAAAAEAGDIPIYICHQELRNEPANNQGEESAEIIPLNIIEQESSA
T1 sequence (looked up) 2: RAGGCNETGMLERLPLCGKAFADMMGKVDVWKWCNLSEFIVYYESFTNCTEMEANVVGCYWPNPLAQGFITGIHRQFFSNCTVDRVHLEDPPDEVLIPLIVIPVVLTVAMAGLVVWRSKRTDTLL

T2: human calcitonin receptor (human, UniProt P30988 25-474)
T2 sequence (looked up): T1 sequence (looked up) 1

B1: Compound A99 (peptide)
peptide: SCNTSTCATQRLANELK([dpeg″-dpeg″-γGlu-C18 diacid])KSSNNFGPILPPTKVGSETY-NH2
modifications: disulfide 2-7; N-terminus assumed
SMILES: CC[C@H](C)[C@H](NC(=O)[C@@H]1CCCN1C(=O)CNC(=O)[C@H](Cc1ccccc1)NC(=O)[C@H](CC(N)=O)NC(=O)[C@H](CC(N)=O)NC(=O)[C@H](CO)NC(=O)[C@H](CO)NC(=O)[C@H](CCCCN)NC(=O)[C@H](CCCCNC(=O)COCCOCNC(=O)COCCOCNC(=O)CC[C@H](NC(=O)CCCCCCCCCCCCCCCCC(=O)O)C(=O)O)NC(=O)[C@H](CC(C)C)NC(=O)[C@H](CCC(=O)O)NC(=O)[C@H](CC(N)=O)NC(=O)[C@H](C)NC(=O)[C@H](CC(C)C)NC(=O)[C@H](CCCNC(=N)N)NC(=O)[C@H](CCC(N)=O)NC(=O)[C@@H](NC(=O)[C@H](C)NC(=O)[C@@H]1CSSC[C@H](NC(=O)[C@@H](N)CO)C(=O)N[C@@H](CC(N)=O)C(=O)N[C@@H]([C@@H](C)O)C(=O)N[C@@H](CO)C(=O)N[C@@H]([C@@H](C)O)C(=O)N1)[C@@H](C)O)C(=O)N[C@@H](CC(C)C)C(=O)N1CCC[C@H]1C(=O)N1CCC[C@H]1C(=O)N[C@H](C(=O)N[C@@H](CCCCN)C(=O)N[C@H](C(=O)NCC(=O)N[C@@H](CO)C(=O)N[C@@H](CCC(=O)O)C(=O)N[C@H](C(=O)N[C@@H](Cc1ccc(O)cc1)C(N)=O)[C@@H](C)O)C(C)C)[C@@H](C)O
B2: Compound A13 (peptide)
peptide: SCNTSTCATQRLANE[dK]([γGlu-γGlu-γGlu-Stearoyl])HKSSNNFGPILPPTKVGSETY-NH2
modifications: disulfide 2-7; N-terminus assumed
SMILES: CCCCCCCCCCCCCCCCCC(=O)N[C@@H](CCC(=O)N[C@@H](CCC(=O)N[C@@H](CCC(=O)NCCCC[C@@H](NC(=O)[C@H](CCC(=O)O)NC(=O)[C@H](CC(N)=O)NC(=O)[C@H](C)NC(=O)[C@H](CC(C)C)NC(=O)[C@H](CCCNC(=N)N)NC(=O)[C@H](CCC(N)=O)NC(=O)[C@@H](NC(=O)[C@H](C)NC(=O)[C@@H]1CSSC[C@H](NC(=O)[C@@H](N)CO)C(=O)N[C@@H](CC(N)=O)C(=O)N[C@@H]([C@@H](C)O)C(=O)N[C@@H](CO)C(=O)N[C@@H]([C@@H](C)O)C(=O)N1)[C@@H](C)O)C(=O)N[C@@H](Cc1c[nH]cn1)C(=O)N[C@@H](CCCCN)C(=O)N[C@@H](CO)C(=O)N[C@@H](CO)C(=O)N[C@@H](CC(N)=O)C(=O)N[C@@H](CC(N)=O)C(=O)N[C@@H](Cc1ccccc1)C(=O)NCC(=O)N1CCC[C@H]1C(=O)N[C@H](C(=O)N[C@@H](CC(C)C)C(=O)N1CCC[C@H]1C(=O)N1CCC[C@H]1C(=O)N[C@H](C(=O)N[C@@H](CCCCN)C(=O)N[C@H](C(=O)NCC(=O)N[C@@H](CO)C(=O)N[C@@H](CCC(=O)O)C(=O)N[C@H](C(=O)N[C@@H](Cc1ccc(O)cc1)C(N)=O)[C@@H](C)O)C(C)C)[C@@H](C)O)[C@@H](C)CC)C(=O)O)C(=O)O)C(=O)O
B3: Compound A27 (peptide)
peptide: SCNTSTCATQRLANE[dK]([γGlu-γGlu-Palmitoyl])HKSSNNFGPILPPTKVGSETY-NH2
modifications: disulfide 2-7; N-terminus assumed
SMILES: CCCCCCCCCCCCCCCC(=O)N[C@@H](CCC(=O)N[C@@H](CCC(=O)NCCCC[C@@H](NC(=O)[C@H](CCC(=O)O)NC(=O)[C@H](CC(N)=O)NC(=O)[C@H](C)NC(=O)[C@H](CC(C)C)NC(=O)[C@H](CCCNC(=N)N)NC(=O)[C@H](CCC(N)=O)NC(=O)[C@@H](NC(=O)[C@H](C)NC(=O)[C@@H]1CSSC[C@H](NC(=O)[C@@H](N)CO)C(=O)N[C@@H](CC(N)=O)C(=O)N[C@@H]([C@@H](C)O)C(=O)N[C@@H](CO)C(=O)N[C@@H]([C@@H](C)O)C(=O)N1)[C@@H](C)O)C(=O)N[C@@H](Cc1c[nH]cn1)C(=O)N[C@@H](CCCCN)C(=O)N[C@@H](CO)C(=O)N[C@@H](CO)C(=O)N[C@@H](CC(N)=O)C(=O)N[C@@H](CC(N)=O)C(=O)N[C@@H](Cc1ccccc1)C(=O)NCC(=O)N1CCC[C@H]1C(=O)N[C@H](C(=O)N[C@@H](CC(C)C)C(=O)N1CCC[C@H]1C(=O)N1CCC[C@H]1C(=O)N[C@H](C(=O)N[C@@H](CCCCN)C(=O)N[C@H](C(=O)NCC(=O)N[C@@H](CO)C(=O)N[C@@H](CCC(=O)O)C(=O)N[C@H](C(=O)N[C@@H](Cc1ccc(O)cc1)C(N)=O)[C@@H](C)O)C(C)C)[C@@H](C)O)[C@@H](C)CC)C(=O)O)C(=O)O
B4: Compound A96 (peptide)
peptide: SCNTSTCATQRLAN[dK]([γGlu-γGlu-dpeg″-C20 diacid])LHKSSNNFGPILPPTKVGSETY-NH2
modifications: disulfide 2-7; N-terminus assumed
SMILES: CC[C@H](C)[C@H](NC(=O)[C@@H]1CCCN1C(=O)CNC(=O)[C@H](Cc1ccccc1)NC(=O)[C@H](CC(N)=O)NC(=O)[C@H](CC(N)=O)NC(=O)[C@H](CO)NC(=O)[C@H](CO)NC(=O)[C@H](CCCCN)NC(=O)[C@H](Cc1c[nH]cn1)NC(=O)[C@H](CC(C)C)NC(=O)[C@@H](CCCCNC(=O)CC[C@H](NC(=O)CC[C@H](NC(=O)COCCOCNC(=O)CCCCCCCCCCCCCCCCCCC(=O)O)C(=O)O)C(=O)O)NC(=O)[C@H](CC(N)=O)NC(=O)[C@H](C)NC(=O)[C@H](CC(C)C)NC(=O)[C@H](CCCNC(=N)N)NC(=O)[C@H](CCC(N)=O)NC(=O)[C@@H](NC(=O)[C@H](C)NC(=O)[C@@H]1CSSC[C@H](NC(=O)[C@@H](N)CO)C(=O)N[C@@H](CC(N)=O)C(=O)N[C@@H]([C@@H](C)O)C(=O)N[C@@H](CO)C(=O)N[C@@H]([C@@H](C)O)C(=O)N1)[C@@H](C)O)C(=O)N[C@@H](CC(C)C)C(=O)N1CCC[C@H]1C(=O)N1CCC[C@H]1C(=O)N[C@H](C(=O)N[C@@H](CCCCN)C(=O)N[C@H](C(=O)NCC(=O)N[C@@H](CO)C(=O)N[C@@H](CCC(=O)O)C(=O)N[C@H](C(=O)N[C@@H](Cc1ccc(O)cc1)C(N)=O)[C@@H](C)O)C(C)C)[C@@H](C)O

These binders were tested against T1, human amylin 3 receptor (assay: cell-based or functional assay).

pEC50 (cAMP accumulation), 0% HSA [pEC50]	pEC50 (cAMP accumulation), 0.1% HSA [pEC50]	pEC50 (cAMP accumulation), 4% HSA [pEC50]	Binder
10.9	9.5	8.6	B1
12.4	11.4	10.1	B2
12.8	11.8	10.4	B3
11.7	9.7	8.5	B4
11.1	8.8	7.6	SCNTSTCATQRLAN[dK]([γGlu-γGlu-dpeg″-γGlu-C20 diacid])LHKSSNNFGPILPPTKVGSETY-NH2 (disulfide 2-7) [Compound A100]

Each binder was assayed against T2, human calcitonin receptor (assay: cell-based or functional assay).

pEC50 (cAMP accumulation), 0% HSA [pEC50]	pEC50 (cAMP accumulation), 0.1% HSA [pEC50]	pEC50 (cAMP accumulation), 4% HSA [pEC50]	Binder
10.4	8.5	7.6	B1
11.6	10.3	8.5	B2
11.9	10.6	9	B3
10.8	8.5	8	B4
10.5	8.1	7.1	SCNTSTCATQRLAN[dK]([γGlu-γGlu-dpeg″-γGlu-C20 diacid])LHKSSNNFGPILPPTKVGSETY-NH2 (disulfide 2-7) [Compound A100]

Reference: patent publication US20200115430A1 (I2O THERAPEUTICS, published 2020)
